Test results as given in patent US20230115257A1 (published 2023).
Changes are numbered by the printed parent chain. Values joined by “and” are separate entries in the source; they are usually repeats but may differ in a detail not shown here. Equal entries are not always repeated. Where two headings read alike, the source gives them in different places.

B1: 3-E2-A (antibody, V domains shown)
VH: EVQLQQSGPELVKPGASVKISCKASGYTFTDYYMNWVKQSHGKSLEWIGDINPNNGGTSYTQKFKGKATLTVDKSSSKAYMELRSLTSEDSAVYYCARRGDGHYGGFTYWGQGTLVTVSA
VL: not shown
B2: 10-L24-A (antibody, V domains shown)
VH: B1 VH with P53S, S59T, T61D, K74R, K78T, Y104F
VL: not shown
B3: 2-O12-A (antibody, V domains shown)
VH: B1 VH with P53S, S59T, T61D, K74R, K78T, Y104F
VL: not shown
B4: 9-G24-A (antibody, V domains shown)
VH: QVQLQQSGAELVRPGASVKLSCKASGYTFTDYEMHWVKQTPVHGLEWIGVIDPETGDTAYNQKFKDKATLTADKSSSTAYMELRSLTSEDSAVYYCARRRDYGNPYWYFDVWGAGTAVTVSS
VL: EIVLTQSPALMAASPGEKVTITCSASSSISSSNLHWYQQKSGTSPKPWIYGTSNLASGVPVRFSGSGSGTSYSLTISSMEAEDAATYVCQQWSNYPYTFGSGTKLEIK
B5: 1-L10-A (antibody, V domains shown)
VH: EVKLEESGGGLVQPGGSMKLSCVASGFTFNNYWMNWVRQSPEKGLEWVAQMRLKSDNYATHYAESVKGRFTISRDDSKSSVYLQMNNLRAEDTGIYYCIEGYWTYWGQGTLVTVSA
VL: QIVLTQSPAIMSASLGERVTMTCTASSSVSSSYLHWYQQKPGSSPKLWIYSTSNLASGVPARFSGNGSGTSYSLTISSMEAEDAATYYCLQYHRSPPYTFGGGTKLEIK
B6: 4-N22-A (antibody, V domains shown)
VH: QVQLQQPGTELVKPGASVKLSCKASGYTFTNYWMYWVKQRPGQGLDWIGNINPSNGGTNYNEKFKSKATLTVDKSSSTAYMQLSSLTSEDSAVYYCARETGNYWGQGTTLTVSS
VL: DILMTQSPSSMSVSLGDTVSISCHASQGISSNIGWLQQKPGKSFKGLIYHGTNLEDGVPSRFSGSGSGADYSLTISSLESEDFADYYCVQYAQFPYTFGGGTKLEIK
B7: 4-M3-A (antibody, V domains shown)
VH: EVQLQQSGPELVKPGDSVKISCKASGYSFTGYFMNWVMQSHGKSLEWIGRINPNNGETFYNQKFKGKATLTVDKSSDTAHMELRSLTSEDSAVYYCARGGTGTGWGQGTTLTVSS
VL: B6 VL with S22T, H50Y, F83L, V89I
B8: 4-K13-A (antibody, V domains shown)
VH: QAYLQQSGAELVRPGASVKMSCKASGYTFTSYTVHWVKQTPRQGLEWIGAIYPGNVDTSYNQNFKGKATLTVDKSSSTAYMQLSSLTSEDSAVYFCARDGYYAMDYWGQGTSVTVSS
VL: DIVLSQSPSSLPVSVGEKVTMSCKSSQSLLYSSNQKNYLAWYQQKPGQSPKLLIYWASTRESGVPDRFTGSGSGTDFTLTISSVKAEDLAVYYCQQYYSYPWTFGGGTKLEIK
B9: 4-L4-A (antibody, V domains shown)
VH: B8 VH with A50G
VL: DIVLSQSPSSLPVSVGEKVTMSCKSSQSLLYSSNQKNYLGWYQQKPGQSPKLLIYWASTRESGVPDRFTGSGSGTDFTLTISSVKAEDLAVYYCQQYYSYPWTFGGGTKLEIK
B10: 2-G20-A (antibody, V domains shown)
VH: EVQLQQSGPELVKPGASVKMSCKASGYTFPSYVLHWVKQKPGQGLEWIGYIYPYNDGTNYNEKFKGKATLTSDKSSSTAYMELSSLTSEDSAVYYCARGDYGDSAWFPYWGQGTLVTVSA
VL: DIVLTQSPASLAVSLGQRATISCRASKSVSTSGYSYMHWYQQKPGQPPKLLIYLASNLKSGVPARFSGGGSGTDFTLNIHPVEEEDAATYYCQLSRELPWTFGGGTKLEIK
B11: 2-H7-A (antibody, V domains shown)
VH: QAYLQQSGAELVRPGASVKMSCKASGYTFTGYTMHWVKQTPRQGLEWIGAIYPENGDTSYNQKFKGKATLTVDKSSSTAYMQLSSLTSEDSAVYFCARDGYDVLYGMDYWGQGTSVTVSS
VL: B10 VL with K59E, G69S, L94H, E109D
B12: 4-C22-A (antibody, V domains shown)
VH: EVQLVESGGDLVKPGGSLKLSCAASGFTFSSFGMSWVRQTPDKRLEWVATISSGGGFTYYPDSVEGRFTISRDNAKNTLYLQMSSLKSEDTAMYYCARRLYDYDWFAYWGQGTLVTVSA
VL: DIVMTQSHKIMSTSVGDRVSITCKASQDVVTAVAWYQKKPGQSPKLLIHWASTRHTGVPDRFTGSGSGTDFTLTISNVQSEDLADYFCQQYSSYPLTFGAGTKLELK
B13: 3-K11-A (antibody, V domains shown)
VH: EVQLQQSGPELVKPGASVKMSCKASGYTFTSYVMHWVKQKPGQGLEWIGYINPYNDGTEYNEKFKGKATLTSDKSSSTAYMELSSLTSEDSAVYHCAREAYRYFDVWGTGTTVTVSS
VL: DIQMTQSPASLSVSVGETVTITCRASENIYSNLAWYQQKQGKYPQLLVYGATNLADGVPSRFSGSGSGTQYFLKINSLQSEDFGSYYCQHFWGIPWTFGGGTKLEIK
B14: 2-B16-B (antibody, V domains shown)
VH: EVQLQQSGAELVRPGSSVKMSCKTSGYTFTSYGINWVKQRPGQGLEWIGYIYIGNGYTAYNEKFKGKATLTSDTSSSTAYMQLSSLTSEDSAIYFCARDGTRDAMDYWGQGTSVTVSS
VL: B13 VL with V13A, Y43S, G50A, Y71F, F72S, S80P, W92Y, G93S, I94S
B15: 6-O12-A (antibody, V domains shown)
VH: QVQLQQPGTELVKPGASVKLSCKASGYTFTSYWMHWVKQRPGQGLEWIGNINPSNGGTNYNEKFRSKATLTVDKSSSTAYMQLSSLTSEDSAVYYCARLGWFLPLGSWGQGTTLTVSS
VL: QIVLTQSPAIMSASLGEVITLTCSASSSVSYMHWYQQKSGTSPKLLIYSTSNLASGVPSRFSGSGSGTFYSLTISSVEAEDAADYYCHQWSGYMYTFGGGTKLEIK
B16: 8-H5-A (antibody, V domains shown)
VH: QVTLKESGPGILQSSQTLSLTCSLSGFSLSTSGMGVSWVRQPSGKGLEWLAHIYWDDDKRYTPSLKSRLTISTDSSRKQVFLKITSVDTADTATYYCARRDLHDYDGWFAYWGQGTLVTVSA
VL: DIVMTQSQKFMSTAVGDRVSVTCKASQNVGTNVAWYQQKPGQSPKALIYSASFRYSGVPDRFSGSGSGTDFTLTISNVQSEDLAEYFCQQYNSYPLTFGSGTKLEIK
B17: 1-B11-A (antibody, V domains shown)
VH: QVQLQQSGPELVKPGASVKISCKASGYTFTDHYINWVKQRPGQGLEWIGWIFPGSGSTYYNEQFKGKATLTVDKSSNTAYMLLSSLTSEDSAVYFCARSGGLRLGFAYWGQGTLVTVSA
VL: DIQMTQTTSSLSASLGDRVTISCRASQDISNYLNWYQQKPDGTVKLLIYYTSRLHSGVPSRFSGSGSGTDYSLTISNLEQEDISTYFCQQVNTLPYTFGGGTKLEIK

Columns and labels:
Experiment in all cases: ELISA
[1] = biological target: T1, SARS-CoV-2 BA.2 spike trimer variant (SARS-CoV-2 Omicron BA.2, UniProt P0DTC2 16-1213)
[2] = biological target: T2, SARS-CoV-2 B.1.617.2 spike trimer variant (SARS-CoV-2 B.1.617.2 (Delta), UniProt P0DTC2 16-1213)
[3] = biological target: T2, SARS-CoV-2 B.1.617.2 spike trimer …; remark: listed apart in the source
[4] = biological target: T2, SARS-CoV-2 B.1.617.2 spike trimer …; remark: listed apart in the source
[5] = biological target: T3, SARS-CoV-2 B.1.1.529 spike trimer variant (SARS-CoV-2 B.1.1.529 (Omicron), UniProt P0DTC2 16-1213)
[6] = biological target: T1, SARS-CoV-2 BA.2 spike trimer variant; remark: listed apart in the source
[7] = biological target: T1, SARS-CoV-2 BA.2 spike trimer variant; remark: listed apart in the source
[8] = biological target: T4, SARS-CoV-2 Beta (B.1.351) variant prefusion stabilized spike trimer protein (UniProt P0DTC2 14-1213)
[9] = biological target: T4, SARS-CoV-2 Beta (B.1.351) variant …; remark: listed apart in the source
[10] = biological target: T3, SARS-CoV-2 B.1.1.529 spike trimer …; remark: listed apart in the source
[11] = biological target: T3, SARS-CoV-2 B.1.1.529 spike trimer …; remark: listed apart in the source

Row | Binder | EC50 [1] [nM] | IC50 [2] [nM] | IC50 [3] | EC50 [4] | EC50 [5] [nM] | IC50 [8] [nM] | also measured
1 | B1 | 71.6 | 59.9 | 9 µg/mL and 59.9 nM | 0.547 nM and 0.085 µg/mL |  |  | 
2 | B2 | 61.9 | 19.5 | 2.9 µg/mL and 19.5 nM | 0.063 µg/mL and 0.405 nM | 20.6 |  | IC50 [6]: 97 nM; IC50 [7]: 97.3 nM
3 | B3 | 192 | 28 | 4.2 µg/mL and 28 nM | 0.096 µg/mL and 0.625 nM | 30.1 | 84.3 | 
4 | B4 |  |  |  |  |  |  | EC50 [9]: 0.56 nM
5 | B5 |  |  |  |  |  | 10.8 | 
6 | B6 | 0.75 | 17.5 | 2.6 µg/mL and 17.5 nM | 0.218 nM and 0.034 µg/mL | 0.48 | 14 | IC50 [6]: 25.8 nM; IC50 [10]: 23.4 nM; IC50 [7]: 25.8 nM; IC50 [11]: 23.4 nM
7 | B7 |  | 62.1 | 9.3 µg/mL and 62.1 nM | 0.522 nM and 0.081 µg/mL |  | 10.8 | 
8 | B8 |  |  |  | 29.3 nM and 4.54 µg/mL |  |  | 
9 | B9 |  |  |  |  |  | 5.99 | 
10 | B10 |  |  |  |  |  | 18.6 | 
11 | B11 |  |  |  |  |  | 10.8 | 
12 | B12 |  |  |  |  |  |  | EC50 [9]: 0.53 nM
13 | B13 |  |  |  |  | 20.6 |  | EC50 [9]: 2.87 nM
14 | B14 |  |  |  |  |  |  | EC50 [9]: 0.27 nM
15 | B15 |  |  |  |  |  | 7.76 | 
16 | B16 | 1.06 | 27.4 | 4.1 µg/mL and 27.4 nM | 0.251 nM and 0.027 µg/mL | 0.5 | 16.8 | IC50 [6]: 13.8 nM; IC50 [10]: 10.1 nM; IC50 [7]: 13.8 nM; IC50 [11]: 10.1 nM
17 | B17 | 181 |  |  | 0.12 µg/mL and 0.772 nM | 1.88 |  | 
